Results published in paper doi:10.1101/2020.10.02.311787 (bioRxiv, 2020).
Where a chain is given by its changes, count along the chain named.

B1: anti-PRL-3 nanobody 4 (VHH)
VHH: QVQLQESGGGLVQTGGSLRLSCAASQSTYNFDVMGWYRLAPGKQREFLTSITNGGNIYYADSVKGRFTIARDDSKTTMYLEMNSLKPEDTAVYTCYGQTHKPRVTTSWGQGTQVTVSS
B2: anti-PRL-3 nanobody 19 (VHH)
VHH: QVQLQESGGGLVQAGGSLGLSCAASRSIFNFKVMGWYRQAPGKQRELVASITNSDNTYYADSVKGRFTISREDAKTTMYLEMNSLKPEDTAVYRCYGQNWGLRATTYWGQGTQVTVSS
B3: anti-PRL-3 nanobody 26 (VHH)
VHH: QVQLQESGGGLVQPGGSLKLSCVVTGLHYYTEGWFRQAPGKEREGVSCISSSDGRTDYIDSVKGRFTISEDNDNKTVYLQMNTLKPDDTGVYYCVAERGPRGSTWWETYDYWGQGTHVTVSS
B4: anti-PRL-3 nanobody 91 (VHH)
VHH: B1 VHH with Y29F
B5: anti-PRL-3 nanobody 10 (VHH)
VHH: B1 VHH with Y29F, D32N, T49P, I51L, M78T
B6: anti-PRL-3 nanobody 16 (VHH)
VHH: B1 VHH with Y29F, I69T
B7: anti-PRL-3 nanobody 84 (VHH)
VHH: B2 VHH with A91T

Legend:
[1] = target: T1, Phosphatase of Regenerating Liver-3 (PRL-3), recombinant (Homo sapiens, UniProt O75365); experiment: ELISA
[2] = target: GFP-PRL-3 in HCT116 cells (Homo sapiens, UniProt O75365); experiment: immunostaining of cells or tissue
[3] = target: 3XFLAG-PRL-3 in HEK293T cells (Homo sapiens, UniProt O75365); experiment: pull-down
[4] = target: T1, Phosphatase of Regenerating Liver-3 …; experiment: BLI
[5] = target: GFP-PRL-2 in HCT116 cells (Homo sapiens, UniProt Q12974); experiment: immunostaining of cells or tissue
[6] = target: GFP-PRL-1 in HCT116 cells (Homo sapiens, UniProt Q93096); experiment: immunostaining of cells or tissue
[7] = target: 3XFLAG-tagged PRL-3, recombinant (human, UniProt O75365); experiment: co-IP
[8] = target: T1, Phosphatase of Regenerating Liver-3 …; experiment: HDX-MS
[9] = target: untagged (wild-type) PRL-3 in HCT116 cells (Homo sapiens, UniProt O75365); experiment: immunostaining of cells or tissue
[10] = target: 3XFLAG-PRL-3 in HCT116 cells (Homo sapiens, UniProt O75365); experiment: immunostaining of cells or tissue
Sequence of 3XFLAG-PRL-3 in HCT116 cells (O75365 whole entry): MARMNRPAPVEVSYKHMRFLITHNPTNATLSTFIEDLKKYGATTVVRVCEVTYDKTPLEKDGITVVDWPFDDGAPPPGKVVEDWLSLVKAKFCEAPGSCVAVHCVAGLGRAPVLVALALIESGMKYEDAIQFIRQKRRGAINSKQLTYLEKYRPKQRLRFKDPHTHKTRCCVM

Sequence of GFP-PRL-2 in HCT116 cells (Q12974 whole entry): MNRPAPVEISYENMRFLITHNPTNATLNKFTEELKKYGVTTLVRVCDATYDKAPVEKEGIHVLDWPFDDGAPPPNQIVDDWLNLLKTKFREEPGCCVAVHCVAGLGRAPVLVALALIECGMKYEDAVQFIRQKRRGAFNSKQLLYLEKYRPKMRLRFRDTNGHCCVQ
Sequence of GFP-PRL-1 in HCT116 cells (Q93096 whole entry): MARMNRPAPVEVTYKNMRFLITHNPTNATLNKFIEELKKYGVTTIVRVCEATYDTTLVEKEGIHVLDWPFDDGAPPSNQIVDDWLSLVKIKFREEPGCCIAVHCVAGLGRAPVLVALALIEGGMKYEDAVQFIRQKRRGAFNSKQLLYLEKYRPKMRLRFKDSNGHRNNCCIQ
Sequence of 3XFLAG-PRL-3 in HEK293T cells (O75365 whole entry): as the sequence (O75365 whole entry) above
Sequence of GFP-PRL-3 in HCT116 cells (O75365 whole entry): as above
T1 sequence (O75365 whole entry): as above
Sequence of untagged (wild-type) PRL-3 in HCT116 cells (O75365 whole entry): as above
Sequence of 3XFLAG-tagged PRL-3, recombinant (O75365 whole entry): as above

| Binder | binding result [1] | binding result [2] | binding result [3] | Kd [4] | binding result [5] | binding result [6] | binding result [7] | binding result [8] | binding result [9] | binding result [10] |
| --- | --- | --- | --- | --- | --- | --- | --- | --- | --- | --- |
| B1 | binds | binds | binds |  |  |  |  |  |  |  |
| B2 |  |  |  | 98.4 nM |  |  |  |  |  |  |
| B3 |  |  |  | 28.9 nM | no binding (tested: 1:100 of 1 mg/mL) | no binding (tested: 1:100 of 1 mg/mL) |  |  |  |  |
| B4 |  | binds | binds |  | no binding (tested: 1:100 of 1 mg/mL) | no binding (tested: 1:100 of 1 mg/mL) | binds | binds | binds | binds |
| B5 | binds | binds | binds |  | no binding (tested: 1:100 of 1 mg/mL) | no binding (tested: 1:100 of 1 mg/mL) |  |  |  |  |
| B6 | binds | binds | binds |  |  |  |  |  |  |  |
| B7 | binds | binds | binds |  |  |  |  |  |  |  |
